Source: patent publication US20230131338A1

Assays:
[1] = biological target: human FXI (zymogen; Factor XI protein, human plasma, Enzyme Research Laboratories cat. HFXI 1111) (human) (UniProt P03951); assay: SPR (Biacore 8K), mAb captured via anti-human Fc, plasma-derived hFXI injected, 37°C
[2] = biological target: human FXI (zymogen; Factor XI protein, human plasma, Enzyme Research Laboratories cat. HFXI 1111) (human) (UniProt P03951); assay: SPR (Biacore 8K), mAb captured via anti-human Fc, plasma-derived hFXI injected, 25°C
[3] = biological target: human FXIa (activated; Factor XIa protein, human plasma, Enzyme Research Laboratories cat. HFXIa 1111a) (human) (UniProt P03951); assay: SPR (Biacore 8K), mAb captured via anti-human Fc, plasma-derived hFXIa injected, 37°C
[4] = biological target: human FXIa (activated; Factor XIa protein, human plasma, Enzyme Research Laboratories cat. HFXIa 1111a) (human) (UniProt P03951); assay: SPR (Biacore 8K), mAb captured via anti-human Fc, plasma-derived hFXIa injected, 25°C

25 nM Ag Bound (RU) [1]: 3.2 RU
25 nM Ag Bound (RU) [2]: 1.3 RU
25 nM Ag Bound (RU) [3]: 0.3 RU
25 nM Ag Bound (RU) [4]: -1.4 RU
Substance: Isotype control mAb [REGN1945] (antibody)
